Laboratory results published in patent publication US20070060497A1, “Reagents for modifying biopharmaceuticals, the use and production thereof” (priority 2003, published 2007).

B1: conjugate composed of trypsin and substance 16: conjugate composed of the compound according to the invention substance 16 and trypsin (conjugate, UniProt P00760 24-246, looked up)
Serine protease 1: IVGGYTCGANTVPYQVSLNSGYHFCGGSLINSQWVVSAAHCYKSGIQVRLGEDNINVVEGNEQFISASKSIVHPSYNSNTLNNDIMLIKLKSAASLNSRVASISLPTSCASAGTQCLISGWGNTKSSGTSYPDVLKCLKAPILSDSSCKSAYPGQITSNMFCAGYLEGGKDSCQGDSGGPVVCSGKLQGIVSWGSGCAQKNKPGVYTKVCNYVSWIKQTIASN
modifications: conjugated to substance 16
notes: conjugate composed of the compound according to the invention substance 16 and trypsin
B2: conjugate composed of L-asparaginase and substance 16: conjugate composed of the compound according to the invention substance 16 and L-asparaginase (conjugate, UniProt P00805 23-348, looked up)
L-asparaginase 2: LPNITILATGGTIAGGGDSATKSNYTVGKVGVENLVNAVPQLKDIANVKGEQVVNIGSQDMNDNVWLTLAKKINTDCDKTDGFVITHGTDTMEETAYFLDLTVKCDKPVVMVGAMRPSTSMSADGPFNLYNAVVTAADKASANRGVLVVMNDTVLDGRDVTKTNTTDVATFKSVNYGPLGYIHNGKIDYQRTPARKHTSDTPFDVSKLNELPKVGIVYNYANASDLPAKALVDAGYDGIVSAGVGNGNLYKSVFDTLATAAKTGTAVVRSSRVPTGATTQDAEVDDAKYGFVASGTLNPQKARVLLQLALTQTKDPQQIQQIFNQY
modifications: conjugated to substance 16
notes: conjugate composed of the compound according to the invention substance 16 and L-asparaginase

What was measured:
[1] = test system: trypsin; assay: Peptidolytic activity of trypsin (α-benzoylarginine-para-nitroanilide, 405 nm); format: biochemical
Excerpt: (§1) Determining the enzyme activities: L-asparaginase catalyzes the deamidation of L-asparagine to form L-aspartic acid. In order to determine the enzyme activity, ammonium which was being released in this reaction was quantified using Neβler reagent. Streptokinase activates plasminogen. Plasminogen which has been activated in this way catalyzes the hydrolysis of the tripeptide derivative D-Val-Leu-Lys-para-nitroanilide (S-2251). In order to indirectly determine the activity of streptokinase, the quantity of nitroaniline which was released was quantified photometrically at 405 nm. The para-nitroanilide derivative α-benzoylarginine-para-nitroanilide was used to determine the peptidolytic activity of trypsin, by photometrically quantifying the nitroaniline which was released at 405 nm.
Substance 16 (0.5 eq./1.5 μl, 1 eq./2.7 μl, 2 eq./5.4 μl, 5 eq./13.8 μl and, respectively, 10 eq./27.3 μl) dissolved in dimethyl sulfoxide (10 mg/ml) was added to 120 μl of a solution of trypsin (1.0 mg/ml) in sodium carbonate buffer (pH 8.5 to 9.5) and the mixture was made up to a total volume of 150 μl using sodium carbonate buffer (pH 8.5 to 9.5). The reaction mixture was incubated at 25° C. and 300 rpm for 1 h on a thermomixer. Excess substance 16 was then removed by means of filtration in centrifuge filtration units (10 kDa cut-off) using water as rinsing liquid.

[2] = target: T1, L-asparaginase (Escherichia coli, UniProt P00805); assay: L-asparaginase enzyme activity (ammonium released, quantified with Nessler reagent); format: biochemical
T1 construct: purchased ProThera
Excerpt: as §1
Substance 16 (0.5 eq./0.7 μl, 1 eq./1.4 μl, 2 eq./2.7 μl, 5 eq./6.8 μl, 10 eq./13.7 μl and, respectively, 20 eq./27.3 μl) dissolved in dimethyl sulfoxide (10 mg/ml) was added to 75 μl of a solution of L-asparaginase (0.5 mg/ml) in sodium carbonate buffer (pH 8.5 to 9.5) and the mixture was made up to a total volume of 150 μl using sodium carbonate buffer (pH 8.5 to 9.5). The reaction mixture was incubated at 25° C. and 300 rpm for 1 h on a thermomixer. Excess substance 16 was then removed by means of filtration in centrifuge filtration units (10 kDa cut-off) using water as rinsing liquid.

Row | Molecule | Residual activity ([1]; 0.5 eqs. of 16 employed) | Residual activity ([1]; 1 eq. of 16 employed) | Residual activity ([1]; 2 eqs. of 16 employed) | Residual activity ([1]; 5 eqs. of 16 employed) | Residual activity ([1]; 10 eqs. of 16 employed, degree of modification 44%) | Residual activity ([2]; 0.5 eqs. of 16 employed) | Residual activity ([2]; 1 eq. of 16 employed) | Residual activity ([2]; 2 eqs. of 16 employed) | Residual activity ([2]; 5 eqs. of 16 employed) | Residual activity ([2]; 10 eqs. of 16 employed, degree of modification 41%) | Residual activity ([2]; 20 eqs. of 16 employed, degree of modification 43%)
1 | B1 | 104% | 109% | 119% | 136% | 137% |  |  |  |  |  | 
2 | B2 |  |  |  |  |  | 100% | 100% | 92% | 87% | 75% | 60%
